Laboratory results published in paper PMC3819411.

Molecular target: Bardet-Biedl syndrome 5 protein (BBS5), endogenous in bovine rod outer segments (bovine (endogenous in rod outer segments))
Assay: co-IP

Substance: arrestin1 (Arr1), endogenous in bovine rod outer segments (from UniProt P08168 1-404) (natural protein)
- reduction of co-precipitated Arr1 after light or phorbol ester against dark: 50%
